Target: human TNFR2 on the cell membrane (human) (UniProt P20333)
Experiment: flow cytometry on human PBMC, CD3+ T cells

Sequence of human TNFR2 on the cell membrane (human) (P20333 23-461): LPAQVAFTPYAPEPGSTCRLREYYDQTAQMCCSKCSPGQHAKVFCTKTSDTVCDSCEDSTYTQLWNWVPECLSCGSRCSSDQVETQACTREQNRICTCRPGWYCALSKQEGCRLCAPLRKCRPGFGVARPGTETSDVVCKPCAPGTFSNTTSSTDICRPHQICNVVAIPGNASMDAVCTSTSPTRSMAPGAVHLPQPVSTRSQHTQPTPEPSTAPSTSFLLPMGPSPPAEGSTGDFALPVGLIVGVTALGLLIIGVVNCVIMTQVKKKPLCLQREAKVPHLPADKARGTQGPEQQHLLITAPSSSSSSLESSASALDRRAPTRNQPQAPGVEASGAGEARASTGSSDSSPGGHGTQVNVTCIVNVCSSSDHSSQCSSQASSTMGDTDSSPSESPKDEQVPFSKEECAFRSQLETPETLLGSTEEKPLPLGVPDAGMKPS

Isotype Ctrl (antibody)
percent of cells in the upper right quadrant (Q1-UR, CD3+ and anti-human IgG Fc+): 5.48%
